Results reported in the supplement of paper PMC10065799, “High-throughput profiling of sequence recognition by tyrosine kinases and SH2 domains using bacterial peptide display” (eLife, 2023).
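Note: 11-residue human phosphosite peptides and single-mutation variants displayed on the E. coli surface, counted by deep sequencing, each peptide's frequency after selection divided by its frequency in the unselected input library; frequency after pTyr selection over input frequency; kinase dosed for 20-30% of maximal phosphorylation in three min.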

Each sequence was assayed on c-Src (assay: phosphorylation enrichment, bacterial display (enrichment ratio); higher = better substrate or ligand; peptides without Tyr show the background).
Work on SSSGAYGGGFG [KRT19_Y61_YF] yielded a phosphorylation enrichment of 0.452.
DFSLKYPTDIP [APC_Y1183_A1184P_YF] was tested, and the phosphorylation enrichment was 0.534.
With VLVSQYEKLDA [AMZ2_Y26_N30D] the phosphorylation enrichment was 0.539.
DIDKIYIRTGI [PIK3CA_Y355_V356I] showed a phosphorylation enrichment of 0.395.
AKIDGYIISYR was tested, and the phosphorylation enrichment was 0.568.
For RLLRGYDQLAF [HLA-C_Y137_S140L_YF], the phosphorylation enrichment was 0.62.
Sequence AKLVQYFMEHH [PTPN11_Y80_E76K_YF] has a phosphorylation enrichment of 0.412.
With APRKVYDTRDD [ZFPL1_Y215] the phosphorylation enrichment was 0.422.
Sequence FGGTVCHSPVS [PRC1_Y511_Y511C] has a phosphorylation enrichment of 0.576.
With ENKGVYVLMSG [IVD_Y277] the phosphorylation enrichment was 0.788.
Sequence KPIETYFSKNY [PLP1_Y50_L46P] has a phosphorylation enrichment of 0.452.
With LGGAMYFLEAD [PKHD1_Y452_E457D_YF] the phosphorylation enrichment was 0.772.
Work on FGSVDCWEKFF [EEF1AKNMT_Y16_Y16C] yielded a phosphorylation enrichment of 0.461.
For RQQQDYWLIDV [ANPEP_Y600], the phosphorylation enrichment was 1.47.
For LGRKLYSIAAP [ABHD12_Y345], the phosphorylation enrichment was 0.647.
QWQQLYDTLNA [EIF3M_Y351] gave a phosphorylation enrichment of 3.99.
For RENGPYFTSFP [GDAP2_Y487_YF], the phosphorylation enrichment was 0.971.
For IIQRAYRRHLL [SCN1A_Y1926], the phosphorylation enrichment was 0.584.
With TNFSLYLRSLE [MTM1_Y71_R69S_YF] the phosphorylation enrichment was 0.385.
Sequence PKKKQYTSIHH [APP_Y728_L723P] has a phosphorylation enrichment of 0.457.
In the case of LGPSDYFGEIA [PRKAR1A_Y323], the phosphorylation enrichment is reported as 0.68.
RTTKTYFPHFD [HBA1_Y43_P38R] showed a phosphorylation enrichment of 1.24.
With EAVSIYQFFGQ [CBLC_Y402_H405Y_YF] the phosphorylation enrichment was 6.58.
Sequence YAGRDYSLDEF [MYOF_Y1705_G1701A] has a phosphorylation enrichment of 0.878.
AQESNYRLLRQ [SLC20A2_Y377_R382Q] was tested, and the phosphorylation enrichment was 0.397.
In the case of GLDGSYLPRDS [SH2D1A_Y29_L31P], the phosphorylation enrichment is reported as 0.418.
DFPMGYPSFLA [TBCK_Y153_I151M_YF] gave a phosphorylation enrichment of 0.428.
For FQGGTYSKACT [FGG_Y380_S384C_YF], the phosphorylation enrichment was 0.447.
With YPPDGYSRHYE [CTNND1_Y213] the phosphorylation enrichment was 0.354.
For QLFGPYLRIHA [BSCL2_Y213_A212P_YF], the phosphorylation enrichment was 0.785.
LRYEVYGGENE [STOX1_Y610] gave a phosphorylation enrichment of 0.77.
FVSIVCNDSGE [TSC2_Y1650_Y1650C] showed a phosphorylation enrichment of 0.478.
In the case of PGIRMYRVQYN [LRFN1_Y454_Q455R], the phosphorylation enrichment is reported as 0.473.

What follows are sequences tested against Fes (UniProt P07332) in the same assay as above.
Chain of Fes (P07332 whole entry, looked up): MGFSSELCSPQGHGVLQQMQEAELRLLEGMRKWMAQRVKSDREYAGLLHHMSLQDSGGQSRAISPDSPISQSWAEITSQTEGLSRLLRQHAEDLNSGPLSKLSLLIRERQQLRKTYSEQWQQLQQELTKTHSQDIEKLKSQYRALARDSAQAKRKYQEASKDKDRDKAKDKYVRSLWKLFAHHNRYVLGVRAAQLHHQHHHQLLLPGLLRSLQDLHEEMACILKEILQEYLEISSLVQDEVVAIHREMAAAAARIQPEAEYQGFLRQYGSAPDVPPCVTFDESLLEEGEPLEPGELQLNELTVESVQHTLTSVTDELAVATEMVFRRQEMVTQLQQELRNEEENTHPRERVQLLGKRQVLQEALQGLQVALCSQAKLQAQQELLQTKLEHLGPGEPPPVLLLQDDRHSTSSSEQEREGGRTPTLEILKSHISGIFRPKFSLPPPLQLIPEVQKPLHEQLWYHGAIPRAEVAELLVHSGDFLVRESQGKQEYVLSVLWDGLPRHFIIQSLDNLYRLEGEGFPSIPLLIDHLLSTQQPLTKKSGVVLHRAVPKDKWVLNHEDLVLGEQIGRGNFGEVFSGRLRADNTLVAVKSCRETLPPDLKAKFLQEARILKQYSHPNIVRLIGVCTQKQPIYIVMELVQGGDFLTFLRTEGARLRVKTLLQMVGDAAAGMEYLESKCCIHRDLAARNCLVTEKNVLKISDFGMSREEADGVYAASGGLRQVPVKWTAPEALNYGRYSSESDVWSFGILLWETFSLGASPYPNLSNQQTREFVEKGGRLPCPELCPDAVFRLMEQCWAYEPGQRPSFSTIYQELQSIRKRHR
For SSSGAYGGGFG [KRT19_Y61_YF], the phosphorylation enrichment was 0.689.
For DFSLKYPTDIP [APC_Y1183_A1184P_YF], the phosphorylation enrichment was 1.18.
With VLVSQYEKLDA [AMZ2_Y26_N30D] the phosphorylation enrichment was 0.826.
DIDKIYIRTGI [PIK3CA_Y355_V356I] was tested, and the phosphorylation enrichment was 1.01.
With AKIDGYIISYR the phosphorylation enrichment was 1.39.
In the case of RLLRGYDQLAF [HLA-C_Y137_S140L_YF], the phosphorylation enrichment is reported as 0.838.
In the case of AKLVQYFMEHH [PTPN11_Y80_E76K_YF], the phosphorylation enrichment is reported as 0.853.
APRKVYDTRDD [ZFPL1_Y215] gave a phosphorylation enrichment of 0.736.
Work on FGGTVCHSPVS [PRC1_Y511_Y511C] yielded a phosphorylation enrichment of 0.627.
ENKGVYVLMSG [IVD_Y277] showed a phosphorylation enrichment of 1.26.
In the case of KPIETYFSKNY [PLP1_Y50_L46P], the phosphorylation enrichment is reported as 0.603.
LGGAMYFLEAD [PKHD1_Y452_E457D_YF] gave a phosphorylation enrichment of 1.09.
FGSVDCWEKFF [EEF1AKNMT_Y16_Y16C] was tested, and the phosphorylation enrichment was 1.24.
RQQQDYWLIDV [ANPEP_Y600] gave a phosphorylation enrichment of 1.6.
Sequence LGRKLYSIAAP [ABHD12_Y345] has a phosphorylation enrichment of 1.13.
QWQQLYDTLNA [EIF3M_Y351] was tested, and the phosphorylation enrichment was 1.29.
RENGPYFTSFP [GDAP2_Y487_YF] gave a phosphorylation enrichment of 1.17.
For IIQRAYRRHLL [SCN1A_Y1926], the phosphorylation enrichment was 0.619.
With TNFSLYLRSLE [MTM1_Y71_R69S_YF] the phosphorylation enrichment was 1.38.
In the case of PKKKQYTSIHH [APP_Y728_L723P], the phosphorylation enrichment is reported as 0.849.
With LGPSDYFGEIA [PRKAR1A_Y323] the phosphorylation enrichment was 1.14.
Work on RTTKTYFPHFD [HBA1_Y43_P38R] yielded a phosphorylation enrichment of 0.86.
EAVSIYQFFGQ [CBLC_Y402_H405Y_YF] showed a phosphorylation enrichment of 1.36.
In the case of YAGRDYSLDEF [MYOF_Y1705_G1701A], the phosphorylation enrichment is reported as 1.14.
In the case of AQESNYRLLRQ [SLC20A2_Y377_R382Q], the phosphorylation enrichment is reported as 0.737.
Sequence GLDGSYLPRDS [SH2D1A_Y29_L31P] has a phosphorylation enrichment of 0.624.
With DFPMGYPSFLA [TBCK_Y153_I151M_YF] the phosphorylation enrichment was 0.832.
FQGGTYSKACT [FGG_Y380_S384C_YF] showed a phosphorylation enrichment of 0.589.
In the case of YPPDGYSRHYE [CTNND1_Y213], the phosphorylation enrichment is reported as 0.655.
Sequence QLFGPYLRIHA [BSCL2_Y213_A212P_YF] has a phosphorylation enrichment of 1.56.
LRYEVYGGENE [STOX1_Y610] showed a phosphorylation enrichment of 1.25.
For FVSIVCNDSGE [TSC2_Y1650_Y1650C], the phosphorylation enrichment was 1.21.
For PGIRMYRVQYN [LRFN1_Y454_Q455R], the phosphorylation enrichment was 1.08.

These sequences were tested against FGFR1 (UniProt P11362) in the same assay as above.
Chain of FGFR1 (P11362 whole entry, looked up): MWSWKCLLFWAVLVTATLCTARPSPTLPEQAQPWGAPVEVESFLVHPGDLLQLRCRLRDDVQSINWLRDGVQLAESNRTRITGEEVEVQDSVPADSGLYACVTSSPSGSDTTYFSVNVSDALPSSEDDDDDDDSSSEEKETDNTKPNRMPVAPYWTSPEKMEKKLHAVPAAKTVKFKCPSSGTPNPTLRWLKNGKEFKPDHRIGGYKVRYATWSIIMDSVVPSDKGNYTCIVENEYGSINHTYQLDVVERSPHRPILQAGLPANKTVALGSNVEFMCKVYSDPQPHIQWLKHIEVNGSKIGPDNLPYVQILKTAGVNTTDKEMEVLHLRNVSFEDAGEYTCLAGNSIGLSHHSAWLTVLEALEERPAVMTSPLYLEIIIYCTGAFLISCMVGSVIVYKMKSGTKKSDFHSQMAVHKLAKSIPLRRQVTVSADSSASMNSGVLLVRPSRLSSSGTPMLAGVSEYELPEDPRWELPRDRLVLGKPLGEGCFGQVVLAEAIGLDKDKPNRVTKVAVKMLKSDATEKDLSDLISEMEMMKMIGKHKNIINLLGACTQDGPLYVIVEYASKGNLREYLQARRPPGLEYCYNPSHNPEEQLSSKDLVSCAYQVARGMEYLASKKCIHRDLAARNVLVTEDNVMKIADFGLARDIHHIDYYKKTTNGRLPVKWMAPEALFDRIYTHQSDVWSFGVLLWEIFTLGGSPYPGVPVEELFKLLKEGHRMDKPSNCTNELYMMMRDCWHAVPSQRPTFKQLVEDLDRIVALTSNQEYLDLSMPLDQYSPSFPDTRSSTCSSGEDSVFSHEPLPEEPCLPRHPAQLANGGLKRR
With SSSGAYGGGFG [KRT19_Y61_YF] the phosphorylation enrichment was 0.412.
Work on DFSLKYPTDIP [APC_Y1183_A1184P_YF] yielded a phosphorylation enrichment of 0.459.
VLVSQYEKLDA [AMZ2_Y26_N30D] was tested, and the phosphorylation enrichment was 0.366.
With DIDKIYIRTGI [PIK3CA_Y355_V356I] the phosphorylation enrichment was 0.521.
AKIDGYIISYR gave a phosphorylation enrichment of 0.607.
RLLRGYDQLAF [HLA-C_Y137_S140L_YF] showed a phosphorylation enrichment of 0.415.
For AKLVQYFMEHH [PTPN11_Y80_E76K_YF], the phosphorylation enrichment was 0.496.
With APRKVYDTRDD [ZFPL1_Y215] the phosphorylation enrichment was 0.427.
With FGGTVCHSPVS [PRC1_Y511_Y511C] the phosphorylation enrichment was 0.524.
Sequence ENKGVYVLMSG [IVD_Y277] has a phosphorylation enrichment of 2.5.
KPIETYFSKNY [PLP1_Y50_L46P] was tested, and the phosphorylation enrichment was 0.466.
LGGAMYFLEAD [PKHD1_Y452_E457D_YF] was tested, and the phosphorylation enrichment was 0.461.
For FGSVDCWEKFF [EEF1AKNMT_Y16_Y16C], the phosphorylation enrichment was 0.511.
With RQQQDYWLIDV [ANPEP_Y600] the phosphorylation enrichment was 20.6.
Work on LGRKLYSIAAP [ABHD12_Y345] yielded a phosphorylation enrichment of 0.543.
In the case of QWQQLYDTLNA [EIF3M_Y351], the phosphorylation enrichment is reported as 0.556.
In the case of RENGPYFTSFP [GDAP2_Y487_YF], the phosphorylation enrichment is reported as 0.764.
Work on IIQRAYRRHLL [SCN1A_Y1926] yielded a phosphorylation enrichment of 0.499.
For TNFSLYLRSLE [MTM1_Y71_R69S_YF], the phosphorylation enrichment was 0.41.
Work on PKKKQYTSIHH [APP_Y728_L723P] yielded a phosphorylation enrichment of 0.71.
Work on LGPSDYFGEIA [PRKAR1A_Y323] yielded a phosphorylation enrichment of 1.39.
RTTKTYFPHFD [HBA1_Y43_P38R] showed a phosphorylation enrichment of 0.914.
Work on EAVSIYQFFGQ [CBLC_Y402_H405Y_YF] yielded a phosphorylation enrichment of 3.15.
For YAGRDYSLDEF [MYOF_Y1705_G1701A], the phosphorylation enrichment was 0.54.
Sequence AQESNYRLLRQ [SLC20A2_Y377_R382Q] has a phosphorylation enrichment of 0.411.
Work on GLDGSYLPRDS [SH2D1A_Y29_L31P] yielded a phosphorylation enrichment of 0.418.
DFPMGYPSFLA [TBCK_Y153_I151M_YF] was tested, and the phosphorylation enrichment was 0.424.
FQGGTYSKACT [FGG_Y380_S384C_YF] showed a phosphorylation enrichment of 0.448.
Sequence YPPDGYSRHYE [CTNND1_Y213] has a phosphorylation enrichment of 0.451.
QLFGPYLRIHA [BSCL2_Y213_A212P_YF] gave a phosphorylation enrichment of 0.733.
Work on LRYEVYGGENE [STOX1_Y610] yielded a phosphorylation enrichment of 0.631.
In the case of FVSIVCNDSGE [TSC2_Y1650_Y1650C], the phosphorylation enrichment is reported as 0.534.
PGIRMYRVQYN [LRFN1_Y454_Q455R] was tested, and the phosphorylation enrichment was 0.58.

The sequences below were run on Fer (mouse) in the same assay as above.
SSSGAYGGGFG [KRT19_Y61_YF] showed a phosphorylation enrichment of 0.396.
Work on DFSLKYPTDIP [APC_Y1183_A1184P_YF] yielded a phosphorylation enrichment of 0.616.
With VLVSQYEKLDA [AMZ2_Y26_N30D] the phosphorylation enrichment was 0.47.
For DIDKIYIRTGI [PIK3CA_Y355_V356I], the phosphorylation enrichment was 0.839.
AKIDGYIISYR gave a phosphorylation enrichment of 0.566.
With RLLRGYDQLAF [HLA-C_Y137_S140L_YF] the phosphorylation enrichment was 0.498.
In the case of AKLVQYFMEHH [PTPN11_Y80_E76K_YF], the phosphorylation enrichment is reported as 0.445.
APRKVYDTRDD [ZFPL1_Y215] gave a phosphorylation enrichment of 0.403.
Sequence FGGTVCHSPVS [PRC1_Y511_Y511C] has a phosphorylation enrichment of 0.452.
ENKGVYVLMSG [IVD_Y277] was tested, and the phosphorylation enrichment was 0.599.
KPIETYFSKNY [PLP1_Y50_L46P] was tested, and the phosphorylation enrichment was 0.4.
Sequence LGGAMYFLEAD [PKHD1_Y452_E457D_YF] has a phosphorylation enrichment of 0.517.
In the case of FGSVDCWEKFF [EEF1AKNMT_Y16_Y16C], the phosphorylation enrichment is reported as 0.462.
Work on RQQQDYWLIDV [ANPEP_Y600] yielded a phosphorylation enrichment of 3.21.
For LGRKLYSIAAP [ABHD12_Y345], the phosphorylation enrichment was 0.952.
QWQQLYDTLNA [EIF3M_Y351] was tested, and the phosphorylation enrichment was 4.62.
Sequence RENGPYFTSFP [GDAP2_Y487_YF] has a phosphorylation enrichment of 0.591.
IIQRAYRRHLL [SCN1A_Y1926] gave a phosphorylation enrichment of 0.497.
For TNFSLYLRSLE [MTM1_Y71_R69S_YF], the phosphorylation enrichment was 0.438.
PKKKQYTSIHH [APP_Y728_L723P] was tested, and the phosphorylation enrichment was 0.595.
LGPSDYFGEIA [PRKAR1A_Y323] was tested, and the phosphorylation enrichment was 0.579.
RTTKTYFPHFD [HBA1_Y43_P38R] showed a phosphorylation enrichment of 0.458.
Work on EAVSIYQFFGQ [CBLC_Y402_H405Y_YF] yielded a phosphorylation enrichment of 8.72.
With YAGRDYSLDEF [MYOF_Y1705_G1701A] the phosphorylation enrichment was 0.588.
AQESNYRLLRQ [SLC20A2_Y377_R382Q] was tested, and the phosphorylation enrichment was 0.479.
GLDGSYLPRDS [SH2D1A_Y29_L31P] was tested, and the phosphorylation enrichment was 0.419.
DFPMGYPSFLA [TBCK_Y153_I151M_YF] was tested, and the phosphorylation enrichment was 0.432.
FQGGTYSKACT [FGG_Y380_S384C_YF] gave a phosphorylation enrichment of 0.46.
YPPDGYSRHYE [CTNND1_Y213] gave a phosphorylation enrichment of 0.354.
Sequence QLFGPYLRIHA [BSCL2_Y213_A212P_YF] has a phosphorylation enrichment of 0.427.
With LRYEVYGGENE [STOX1_Y610] the phosphorylation enrichment was 0.623.
In the case of FVSIVCNDSGE [TSC2_Y1650_Y1650C], the phosphorylation enrichment is reported as 0.613.
In the case of PGIRMYRVQYN [LRFN1_Y454_Q455R], the phosphorylation enrichment is reported as 0.989.
